{
  "source": "patent US20150252148A1",
  "tested_on": "Dynamic MAPTrix™ Laminin",
  "data": [
    {"substance": "type IV bacterial collagenase", "values": [
      {"measurement": "enzymatic digestion monitored by SDS-PAGE (25:1 substrate:collagenase, 2 h, 37° C.)", "result": "the apparent molecular weight of various fractions from disgested Dynamic MAPTrix™ Laminin on a SDS-PAGE gel was 29, 18, and 12 kDa"}
    ]}
  ]
}
